Measured values published in publication PMC4782060, “Mechanism of intermediate filament recognition by plakin repeat domains revealed by envoplakin targeting of vimentin” (Nature Communications, 2016).

T1: wild-type human envoplakin plakin repeat domain (PRD), residues Asp1822-Ala2014 (human, UniProt Q92817 1822-2014)
T1 construct: envoplakin, human, plakin repeat domain, residues Asp1822-Ala2014; vector pProEX-HTC; also called envoplakin PRD; WT; source: E. coli BL21(DE3), purified (HisTrap, TEV cleavage, S75 size exclusion)
T1 sequence (looked up): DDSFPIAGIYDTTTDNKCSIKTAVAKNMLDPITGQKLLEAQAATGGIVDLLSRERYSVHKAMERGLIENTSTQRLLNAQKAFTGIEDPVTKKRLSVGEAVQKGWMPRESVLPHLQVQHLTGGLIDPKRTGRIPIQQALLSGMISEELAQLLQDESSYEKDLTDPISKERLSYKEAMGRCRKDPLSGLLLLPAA

T2: envoplakin PRD K2002E (control mutation) (human, UniProt Q92817 1822-2014, K2002E)
T2 construct: envoplakin, human, plakin repeat domain, residues Asp1822-Ala2014, mutant K2002E; 15N-labelled for NMR; source: E. coli BL21(DE3), purified (HisTrap, TEV cleavage, S75 size exclusion)
T2 sequence (looked up): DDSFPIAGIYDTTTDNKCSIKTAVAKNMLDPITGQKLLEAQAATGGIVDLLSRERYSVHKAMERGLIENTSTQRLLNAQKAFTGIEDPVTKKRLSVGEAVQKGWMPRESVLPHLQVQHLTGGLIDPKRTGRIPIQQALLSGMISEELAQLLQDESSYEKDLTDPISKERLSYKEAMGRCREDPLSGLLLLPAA

B1: envoplakin PRD K1901E (domain or fragment, human, UniProt Q92817 1822-2014, looked up)
chain: DDSFPIAGIYDTTTDNKCSIKTAVAKNMLDPITGQKLLEAQAATGGIVDLLSRERYSVHKAMERGLIENTSTQRLLNAQEAFTGIEDPVTKKRLSVGEAVQKGWMPRESVLPHLQVQHLTGGLIDPKRTGRIPIQQALLSGMISEELAQLLQDESSYEKDLTDPISKERLSYKEAMGRCRKDPLSGLLLLPAA
notes: envoplakin, human, plakin repeat domain, residues Asp1822-Ala2014, mutant K1901E; 15N-labelled for NMR; source: E. coli BL21(DE3), purified (HisTrap, TEV cleavage, S75 size exclusion)
B2: envoplakin PRD R1914E (domain or fragment, human, UniProt Q92817 1822-2014, looked up)
chain: DDSFPIAGIYDTTTDNKCSIKTAVAKNMLDPITGQKLLEAQAATGGIVDLLSRERYSVHKAMERGLIENTSTQRLLNAQKAFTGIEDPVTKKELSVGEAVQKGWMPRESVLPHLQVQHLTGGLIDPKRTGRIPIQQALLSGMISEELAQLLQDESSYEKDLTDPISKERLSYKEAMGRCRKDPLSGLLLLPAA
notes: envoplakin, human, plakin repeat domain, residues Asp1822-Ala2014, mutant R1914E; 15N-labelled for NMR; also called K1914E (as printed once in the text); source: E. coli BL21(DE3), purified (HisTrap, TEV cleavage, S75 size exclusion)
B3: envoplakin PRD K1847E (control mutation) (domain or fragment, human, UniProt Q92817 1822-2014, looked up)
chain: DDSFPIAGIYDTTTDNKCSIKTAVAENMLDPITGQKLLEAQAATGGIVDLLSRERYSVHKAMERGLIENTSTQRLLNAQKAFTGIEDPVTKKRLSVGEAVQKGWMPRESVLPHLQVQHLTGGLIDPKRTGRIPIQQALLSGMISEELAQLLQDESSYEKDLTDPISKERLSYKEAMGRCRKDPLSGLLLLPAA
notes: envoplakin, human, plakin repeat domain, residues Asp1822-Ala2014, mutant K1847E; 15N-labelled for NMR; source: E. coli BL21(DE3), purified (HisTrap, TEV cleavage, S75 size exclusion)

How the values were obtained:
Conditions in all cases: both partners purified
[1] = target: T3, full-length human vimentin (residues Met1-Glu466) (human, UniProt P08670 1-466); assay: NMR titration; unlabelled full-length vimentin (10, 50, 100, 200 μM) added to 100 μM 15N-labelled wild-type or mutant envoplakin PRD; 1H,15N HSQC peak intensities; 20 mM Tris-Cl, pH 7, 1 mM DTT, no salt, 298 K
T3 construct: vimentin, human, residues Met1-Glu466; Vector pET21a+; also called vimentin^FL; full-length vimentin

[2] = target: T1, wild-type human envoplakin plakin …; assay: SPR; His-tagged vimentin^ROD (wild type or mutant) immobilised on nickel-coated chips, Biacore 3000; envoplakin PRD 0-100 μM flowed over; 150 mM NaCl, 10 mM Hepes, 3 mM EDTA, 0.005% Surfactant P20, pH 7.4
[3] = target: B3; assay: as above
envoplakin PRD K1901E = target: B1; assay: as above
[4] = target: T2, envoplakin PRD K2002E (control mutation); assay: as above
envoplakin PRD R1914E = target: B2; assay: as above

T3 sequence (P08670 whole entry, the tested form may be a part): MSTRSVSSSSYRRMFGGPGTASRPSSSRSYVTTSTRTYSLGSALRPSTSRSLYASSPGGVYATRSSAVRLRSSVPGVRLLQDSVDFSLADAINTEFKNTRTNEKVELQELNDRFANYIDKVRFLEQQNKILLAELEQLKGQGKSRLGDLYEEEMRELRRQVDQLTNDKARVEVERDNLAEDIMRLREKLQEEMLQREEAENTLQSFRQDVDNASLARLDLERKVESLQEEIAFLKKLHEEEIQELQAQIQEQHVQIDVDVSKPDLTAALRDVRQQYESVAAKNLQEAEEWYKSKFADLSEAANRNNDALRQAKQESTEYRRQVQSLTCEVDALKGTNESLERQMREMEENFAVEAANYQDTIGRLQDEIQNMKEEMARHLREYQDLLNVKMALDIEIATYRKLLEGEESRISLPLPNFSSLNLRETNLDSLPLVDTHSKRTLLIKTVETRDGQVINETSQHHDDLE

binding result [1]	Kd [2]	Binder	other results
binds	–	envoplakin PRD R1895E (domain or fragment, human, UniProt Q92817 1822-2014, looked up, envoplakin, human, plakin repeat domain, residues Asp1822-Ala2014, mutant R1895E; 15N-labelled for NMR; source: E. coli BL21(DE3), purified (HisTrap, TEV cleavage, S75 size exclusion)) DDSFPIAGIYDTTTDNKCSIKTAVAKNMLDPITGQKLLEAQAATGGIVDLLSRERYSVHKAMERGLIENTSTQELLNAQKAFTGIEDPVTKKRLSVGEAVQKGWMPRESVLPHLQVQHLTGGLIDPKRTGRIPIQQALLSGMISEELAQLLQDESSYEKDLTDPISKERLSYKEAMGRCRKDPLSGLLLLPAA	–
binds	–	envoplakin PRD R1952A (domain or fragment, human, UniProt Q92817 1822-2014, looked up, envoplakin, human, plakin repeat domain, residues Asp1822-Ala2014, mutant R1952A; 15N-labelled for NMR; source: E. coli BL21(DE3), purified (HisTrap, TEV cleavage, S75 size exclusion)) DDSFPIAGIYDTTTDNKCSIKTAVAKNMLDPITGQKLLEAQAATGGIVDLLSRERYSVHKAMERGLIENTSTQRLLNAQKAFTGIEDPVTKKRLSVGEAVQKGWMPRESVLPHLQVQHLTGGLIDPKRTGAIPIQQALLSGMISEELAQLLQDESSYEKDLTDPISKERLSYKEAMGRCRKDPLSGLLLLPAA	–
binds	–	envoplakin PRD K1994E (domain or fragment, human, UniProt Q92817 1822-2014, looked up, envoplakin, human, plakin repeat domain, residues Asp1822-Ala2014, mutant K1994E; 15N-labelled for NMR; source: E. coli BL21(DE3), purified (HisTrap, TEV cleavage, S75 size exclusion)) DDSFPIAGIYDTTTDNKCSIKTAVAKNMLDPITGQKLLEAQAATGGIVDLLSRERYSVHKAMERGLIENTSTQRLLNAQKAFTGIEDPVTKKRLSVGEAVQKGWMPRESVLPHLQVQHLTGGLIDPKRTGRIPIQQALLSGMISEELAQLLQDESSYEKDLTDPISKERLSYEEAMGRCRKDPLSGLLLLPAA	–
binds	–	B1	–
binds	–	B2	–
binds	–	envoplakin PRD R1990E (control mutation) (domain or fragment, human, UniProt Q92817 1822-2014, looked up, envoplakin, human, plakin repeat domain, residues Asp1822-Ala2014, mutant R1990E; 15N-labelled for NMR; source: E. coli BL21(DE3), purified (HisTrap, TEV cleavage, S75 size exclusion)) DDSFPIAGIYDTTTDNKCSIKTAVAKNMLDPITGQKLLEAQAATGGIVDLLSRERYSVHKAMERGLIENTSTQRLLNAQKAFTGIEDPVTKKRLSVGEAVQKGWMPRESVLPHLQVQHLTGGLIDPKRTGRIPIQQALLSGMISEELAQLLQDESSYEKDLTDPISKEELSYKEAMGRCRKDPLSGLLLLPAA	–
binds	–	envoplakin PRD K1988E (control mutation) (domain or fragment, human, UniProt Q92817 1822-2014, looked up, envoplakin, human, plakin repeat domain, residues Asp1822-Ala2014, mutant K1988E; 15N-labelled for NMR; source: E. coli BL21(DE3), purified (HisTrap, TEV cleavage, S75 size exclusion)) DDSFPIAGIYDTTTDNKCSIKTAVAKNMLDPITGQKLLEAQAATGGIVDLLSRERYSVHKAMERGLIENTSTQRLLNAQKAFTGIEDPVTKKRLSVGEAVQKGWMPRESVLPHLQVQHLTGGLIDPKRTGRIPIQQALLSGMISEELAQLLQDESSYEKDLTDPISEERLSYKEAMGRCRKDPLSGLLLLPAA	–
binds	–	B3	–
–	106 ± 45.6 µM	vimentin^ROD D112K (domain or fragment, vimentin, human, rod residues 99-249, mutant D112K) not shown	–
–	1500 ± 139 µM	vimentin^ROD double mutant D112K/D119K (domain or fragment, vimentin, human, rod residues 99-249, double mutant D112K/D119K) not shown	–
–	19.1 ± 1.3 µM	vimentin^ROD construct, vimentin residues 99-249 (coils 1A and 1B of the central rod domain) (domain or fragment, vimentin, human, rod residues 99-249, coils 1A and 1B; Vector pET21a+; His tag retained for SPR; also called WT; envoplakin^ROD (as printed once in the text)) not shown	Kd [3]: 26.5 ± 2 µM; Kd (envoplakin PRD K1901E): 69.3 ± 10.6 µM; Kd [4]: 14.5 ± 0.4 µM; Kd (envoplakin PRD R1914E): 132 ± 34.7 µM
–	48.4 ± 5.5 µM	vimentin^ROD D119K (domain or fragment, vimentin, human, rod residues 99-249, mutant D119K) not shown	–
